Experimental data: patent US20210393713A1 (University of Pennsylvania, published 2021)
Substitutions are numbered along the chain they refer to. Names and notes keep the numbering of the source.

T1: Twin-Strep-tagged LY6A, BALB/cJ variant (GPI-anchor truncated, soluble) (mouse (BALB/cJ), UniProt P05533 27-111)
T1 construct: range 1-111; also called BALB/cJ LY6A; BABL/cJ LY6A; not shown: Twin-Strep-tag from vector pESG-IBA103
T1 sequence: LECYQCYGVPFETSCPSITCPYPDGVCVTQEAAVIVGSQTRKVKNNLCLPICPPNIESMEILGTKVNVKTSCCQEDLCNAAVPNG

B1: AAV-PHP.B V592G mutant capsid (other)
chain: MAADGYLPDWLEDNLSEGIREWWALKPGAPQPKANQQHQDNARGLVLPGYKYLGPGNGLDKGEPVNAADAAALEHDKAYDQQLKAGDNPYLKYNHADAEFQERLKEDTSFGGNLGRAVFQAKKRLLEPLGLVEEAAKTAPGKKRPVEQSPQEPDSSAGIGKSGAQPAKKRLNFGQTGDTESVPDPQPIGEPPAAPSGVGSLTMASGGGAPVADNNEGADGVGSSSGNWHCDSQWLGDRVITTSTRTWALPTYNNHLYKQISNSTSGGSSNDNAYFGYSTPWGYFDFNRFHCHFSPRDWQRLINNNWGFRPKRLNFKLFNIQVKEVTDNNGVKTIANNLTSTVQVFTDSDYQLPYVLGSAHEGCLPPFPADVFMIPQYGYLTLNDGSQAVGRSSFYCLEYFPSQMLRTGNNFQFSYEFENVPFHSSYAHSQSLDRLMNPLIDQYLYYLSRTINGSGQNQQTLKFSVAGPSNMAVQGRNYIPGPSYRQQRVSTTVTQNNNSEFAWPGASSWALNGRNSLMNPGPAMASHKEGEDRFFPLSGSLIFGKQGTGRDNVDADKVMITNEEEIKTTNPVATESYGQVATNHQSAQTLAGPFKAQAQTGWVQNQGILPGMVWQDRDVYLQGPIWAKIPHTDGNFHPSPLMGGFGMKHPPPQILIKNTPVPADPPTAFNKDKLNSFITQYSTGQVSVEIEWELQKENSKRWNPEIQYTSNYYKSNNVEFAVNTEGVYSEPRPIGTRYLTRNL
B2: AAV-PHP.eB capsid (other)
chain: B1 chain with A587D, Q588G, G592V

Biological target: T1, Twin-Strep-tagged LY6A, BALB/cJ variant …
Experiment: ELISA, AAV particles on plate-bound Twin-Strep-tagged LY6A

Row | Binder | binding result
1 | B1 | no binding
2 | B2 | binds
